The nature of this data set: self-splicing fitness, log relative to wild type (ln ratio); higher = more splicing; Tetrahymena group I intron in knt gene, E. coli kanamycin selection, DiMSum; sequences stand for … in CUCUCU…GGAGGGAAAAGUUAUCAGGCAUGCACCUGGUAGCUAGUCUUUAAACCAAUAGAUUGCAUCGGUUUAAAAGGCAAGACCGUCAAAUUGCGGGAAAGGGGUCAACAGCCGUUCAGUACCAAGUCUCAGGGGAAACUUUGAGAUGGCCUUGCAAAGGGUAUGGUAAUAAGCUGACGGACAUGGUCCUAACCACGCAGCCAAGUCCUAAGUCAACAGAUCUUCUGUUGAUAUGGAUGCAGUUCACAGACUAAAUGUCGGUCGGGGAAGAUGUAUUCUUCUCAUAAGAUAUAGUCGGACCUCUCCUUAAUGGGAGCUAGCGGAUGAAGUGAUGCAACACUGGAGCCGCUGGGAACUAAUUUGUAUGCGAAAGUAUAUUGAUUAGUUUUGGAGUACUCGUGGUCG
An outline of the steps: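 Fitness was computed with DiMSum as the error-weighted combination of replicate fold changes, kanamycin versus none, each normalised to wild type. The library randomised all eight intron nucleotides of the P1ex region, with the intron placed in the knt kanamycin-resistance gene on pET-22b(+) in E. coli BL21(DE3). Six replicate transformations were grown overnight at 37°C or 30°C on LB agar with or without 25 μg/mL kanamycin, plus 100 μg/mL carbenicillin, 50 μM IPTG and 0.2% rhamnose. Pooled colonies were amplicon-sequenced on an Illumina HiSeq 2500.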

± gives the uncertainty stated by the source.

In the case of GCAAAGCAAUAUUACGGCAA, the “self-splicing fitness (ln)” value by setting is: (30 °C) -0.673 ± 0.094; (37 °C) -0.722 ± 0.091.
Taken in the same sequence, the figures for ACAGAGCAAUAUUACGUGUC were -3.27 ± 0.22 and -2.94 ± 0.38.
Consider UGCGAGCAAUAUUACGCAUA, for which the “self-splicing fitness (ln)” value (30 °C) is -3.48 ± 0.43 and the “self-splicing fitness (ln)” value (37 °C) is -3 ± 0.36.
For ACAAAGCAAUAUUACGGCGA the same measures were -0.177 ± 0.072 and 0.19 ± 0.094.
For the sequence CUUGAGCAAUAUUACGCCUU, the “self-splicing fitness (ln)” value (37 °C) was -2.47 ± 0.37.
On to AGAAAGCAAUAUUACGUAAU, for which the “self-splicing fitness (ln)” value reads like this: (30 °C) -1.6 ± 0.087; (37 °C) -1.27 ± 0.12.
GGCAAGCAAUAUUACGACCU: the “self-splicing fitness (ln)” value reads like this: (30 °C) -0.895 ± 0.12; (37 °C) -0.997 ± 0.12.
Taken in the same sequence, the figures for CUACAGCAAUAUUACGGAUG were -0.683 ± 0.056 and -0.187 ± 0.076.
As to UUUCAGCAAUAUUACGUGCC, the “self-splicing fitness (ln)” value by setting is: (30 °C) -3.44 ± 0.25; (37 °C) -1.57 ± 0.23.
With AUAGAGCAAUAUUACGCUCA, the “self-splicing fitness (ln)” value runs as follows: (30 °C) -0.0598 ± 0.076; (37 °C) 0.193 ± 0.12.
On to CCGGAGCAAUAUUACGGGAC, for which the “self-splicing fitness (ln)” value was -3.11 ± 0.31 (30 °C) and -2.5 ± 0.3 (37 °C).
ACGCAGCAAUAUUACGGCCG: the “self-splicing fitness (ln)” value runs as follows: (30 °C) -1.66 ± 0.11; (37 °C) -0.0837 ± 0.15.
For CCCUAGCAAUAUUACGUCUA the same measures were -2.5 ± 0.19 and -2.12 ± 0.2.
AGAGAGCAAUAUUACGUCCG: the “self-splicing fitness (ln)” value (37 °C) was -1.63 ± 0.33.
Regarding AGUUAGCAAUAUUACGCAGU, the “self-splicing fitness (ln)” value runs as follows: (30 °C) -2.38 ± 0.23; (37 °C) -2.62 ± 0.31.
For CGGAAGCAAUAUUACGCGUA the same measures were -2.96 ± 0.29 and -2.47 ± 0.25.
Consider GAUCAGCAAUAUUACGGGCG, for which the “self-splicing fitness (ln)” value runs as follows: (30 °C) -0.25 ± 0.095; (37 °C) -0.511 ± 0.13.
CUUAAGCAAUAUUACGAUUC: the “self-splicing fitness (ln)” value is -4.19 ± 0.46 (30 °C) and -2.07 ± 0.26 (37 °C).
Taken in the same sequence, the figures for UGUAAGCAAUAUUACGUUCC were -4.53 ± 0.33 and -0.21 ± 0.19.
Taken in the same sequence, the figures for CCUGAGCAAUAUUACGCGUC were -2.89 ± 0.27 and -3.02 ± 0.4.
For the sequence CGGAAGCAAUAUUACGAACG, the “self-splicing fitness (ln)” value (30 °C) was -3 ± 0.21 and the “self-splicing fitness (ln)” value (37 °C) was -0.802 ± 0.24.
For the sequence AGCCAGCAAUAUUACGACCU, the “self-splicing fitness (ln)” value is, setting by setting: (30 °C) 0.00818 ± 0.069; (37 °C) 0.00767 ± 0.083.
With GCUAAGCAAUAUUACGCGUA, the “self-splicing fitness (ln)” value by setting is: (30 °C) -1.26 ± 0.12; (37 °C) -0.718 ± 0.14.
GGAAAGCAAUAUUACGUCGC: the “self-splicing fitness (ln)” value runs as follows: (30 °C) -0.897 ± 0.17; (37 °C) -0.926 ± 0.2.
Consider UAAGAGCAAUAUUACGGGGG, for which the “self-splicing fitness (ln)” value (30 °C) was -2.94 ± 0.22.
As for UAGUAGCAAUAUUACGGGGG, the “self-splicing fitness (ln)” value (30 °C) is -4.33 ± 0.46 and the “self-splicing fitness (ln)” value (37 °C) was -2.8 ± 0.36.
As to AUAAAGCAAUAUUACGAAUG, the “self-splicing fitness (ln)” value is, setting by setting: (30 °C) -1.48 ± 0.1; (37 °C) -0.422 ± 0.12.
Taken in the same sequence, the figures for CCAUAGCAAUAUUACGUCGA were -3.03 ± 0.28 and -2.2 ± 0.27.
For GACCAGCAAUAUUACGGAGA, the “self-splicing fitness (ln)” value by setting is: (30 °C) -1.25 ± 0.078; (37 °C) -0.461 ± 0.088.
Taken in the same sequence, the figures for ACGUAGCAAUAUUACGUUCU were -2.3 ± 0.097 and -0.807 ± 0.076.
Take CCCAAGCAAUAUUACGGUAU: the “self-splicing fitness (ln)” value was -4.33 ± 0.23 (30 °C) and -2.51 ± 0.21 (37 °C).
CUCGAGCAAUAUUACGACAU: the “self-splicing fitness (ln)” value is, setting by setting: (30 °C) -3.527 ± 0.027; (37 °C) -2.07 ± 0.038.
Taken in the same sequence, the figures for UUGGAGCAAUAUUACGUUGG were -1.5 ± 0.27 and -2.92 ± 0.28.
Regarding GAAAAGCAAUAUUACGUAGG, the “self-splicing fitness (ln)” value by setting is: (30 °C) -3.87 ± 0.14; (37 °C) -1.96 ± 0.11.
Taken in the same sequence, the figures for GAUCAGCAAUAUUACGGAUA were -0.42 ± 0.067 and 0.0803 ± 0.077.
For UACCAGCAAUAUUACGUUGG the same measures were -3.21 ± 0.12 and -2.85 ± 0.14.
For UUUUAGCAAUAUUACGAGUG the same measures were -1.75 ± 0.13 and -1.26 ± 0.13.
Turning to ACUGAGCAAUAUUACGUUAU, the “self-splicing fitness (ln)” value runs as follows: (30 °C) -3.12 ± 0.15; (37 °C) -2.89 ± 0.2.
As to GUUGAGCAAUAUUACGUAUC, the “self-splicing fitness (ln)” value runs as follows: (30 °C) -2.91 ± 0.15; (37 °C) -1.15 ± 0.15.
AUAUAGCAAUAUUACGCUCC: the “self-splicing fitness (ln)” value was -0.958 ± 0.25 (30 °C) and -0.476 ± 0.32 (37 °C).
For the sequence CUUCAGCAAUAUUACGAAUU, the “self-splicing fitness (ln)” value reads like this: (30 °C) -2.66 ± 0.19; (37 °C) -0.66 ± 0.13.
Turning to CCAGAGCAAUAUUACGCGAG, the “self-splicing fitness (ln)” value reads like this: (30 °C) -2.77 ± 0.17; (37 °C) -2.36 ± 0.25.
As to UAUGAGCAAUAUUACGGACA, the “self-splicing fitness (ln)” value was -2.64 ± 0.35 (30 °C) and -2.28 ± 0.29 (37 °C).
Take GUAAAGCAAUAUUACGACCC: the “self-splicing fitness (ln)” value reads like this: (30 °C) -1.28 ± 0.32; (37 °C) -0.886 ± 0.41.
For AACGAGCAAUAUUACGGCCG the same measures were -1.2 ± 0.12 and -1.07 ± 0.21.
AAAGAGCAAUAUUACGCUCA: the “self-splicing fitness (ln)” value (37 °C) is -0.771 ± 0.37.
Consider ACAGAGCAAUAUUACGUGCA, for which the “self-splicing fitness (ln)” value is -3.73 ± 0.29 (30 °C) and -1.57 ± 0.25 (37 °C).
Turning to AUGAAGCAAUAUUACGCCAA, the “self-splicing fitness (ln)” value was -0.427 ± 0.086 (30 °C) and 0.0636 ± 0.11 (37 °C).
Taken in the same sequence, the figures for GGCUAGCAAUAUUACGAGUG were -0.589 ± 0.084 and 0.347 ± 0.12.
Take GUCGAGCAAUAUUACGUUGU: the “self-splicing fitness (ln)” value (37 °C) is -2.78 ± 0.37.
Take GGUAAGCAAUAUUACGCCCC: the “self-splicing fitness (ln)” value (30 °C) was -3.4 ± 0.45.
As for AAUUAGCAAUAUUACGAAAG, the “self-splicing fitness (ln)” value is, setting by setting: (30 °C) -3.12 ± 0.19; (37 °C) -1.51 ± 0.18.
On to CCACAGCAAUAUUACGUAUG, for which the “self-splicing fitness (ln)” value (30 °C) is -0.654 ± 0.047 and the “self-splicing fitness (ln)” value (37 °C) is -0.391 ± 0.065.
With AAACAGCAAUAUUACGGAAC, the “self-splicing fitness (ln)” value is, setting by setting: (30 °C) -3.5 ± 0.16; (37 °C) -4.05 ± 0.28.
As for UUCUAGCAAUAUUACGAACA, the “self-splicing fitness (ln)” value (37 °C) is -0.35 ± 0.37.
Turning to GGCUAGCAAUAUUACGGGAA, the “self-splicing fitness (ln)” value was -0.617 ± 0.14 (30 °C) and -1.06 ± 0.2 (37 °C).
Take AUCCAGCAAUAUUACGUUAA: the “self-splicing fitness (ln)” value (30 °C) was -1.79 ± 0.11 and the “self-splicing fitness (ln)” value (37 °C) was -1.1 ± 0.12.
As to CAGGAGCAAUAUUACGUUGU, the “self-splicing fitness (ln)” value runs as follows: (30 °C) -3.34 ± 0.17; (37 °C) -2.26 ± 0.19.
Taken in the same sequence, the figures for CCUCAGCAAUAUUACGGCGA were -3.72 ± 0.31 and -2.79 ± 0.22.
On to CCGCAGCAAUAUUACGGAAG, for which the “self-splicing fitness (ln)” value (30 °C) was -3.05 ± 0.12 and the “self-splicing fitness (ln)” value (37 °C) is -1.33 ± 0.11.
For the sequence UAAUAGCAAUAUUACGGUUU, the “self-splicing fitness (ln)” value was -2.92 ± 0.19 (30 °C) and -1.39 ± 0.18 (37 °C).
As for GCUUAGCAAUAUUACGCCAA, the “self-splicing fitness (ln)” value (30 °C) is -4.1 ± 0.43.
As to CUUAAGCAAUAUUACGACUG, the “self-splicing fitness (ln)” value runs as follows: (30 °C) 0.139 ± 0.087; (37 °C) -0.589 ± 0.13.
Regarding GGCAAGCAAUAUUACGGUCG, the “self-splicing fitness (ln)” value runs as follows: (30 °C) -0.22 ± 0.072; (37 °C) 0.553 ± 0.099.
As to AGGCAGCAAUAUUACGCAAC, the “self-splicing fitness (ln)” value is -0.42 ± 0.21 (30 °C) and -1.41 ± 0.34 (37 °C).
Consider GCGGAGCAAUAUUACGGGGC, for which the “self-splicing fitness (ln)” value reads like this: (30 °C) -2.48 ± 0.48; (37 °C) -1.65 ± 0.35.
For ACGAAGCAAUAUUACGGUAA, the “self-splicing fitness (ln)” value by setting is: (30 °C) -2.49 ± 0.17; (37 °C) -1.33 ± 0.14.
Consider AUGUAGCAAUAUUACGUGAC, for which the “self-splicing fitness (ln)” value (30 °C) is -4.13 ± 0.34 and the “self-splicing fitness (ln)” value (37 °C) is -0.782 ± 0.2.
AACCAGCAAUAUUACGUCGG: the “self-splicing fitness (ln)” value was -3.79 ± 0.12 (30 °C) and -1.41 ± 0.094 (37 °C).
Taken in the same sequence, the figures for CAAUAGCAAUAUUACGGUGC were -3.75 ± 0.23 and -3.67 ± 0.29.
Turning to GCAGAGCAAUAUUACGUAGU, the “self-splicing fitness (ln)” value runs as follows: (30 °C) -3.3 ± 0.28; (37 °C) -3.09 ± 0.37.
Consider GAAUAGCAAUAUUACGAAUA, for which the “self-splicing fitness (ln)” value (30 °C) is -1.07 ± 0.17 and the “self-splicing fitness (ln)” value (37 °C) is -1.57 ± 0.22.
For AGCCAGCAAUAUUACGCGUU the same measures were -2.17 ± 0.12 and -0.95 ± 0.12.
As for GCCGAGCAAUAUUACGUUGG, the “self-splicing fitness (ln)” value by setting is: (30 °C) -3.55 ± 0.24; (37 °C) -2.18 ± 0.27.
For CAACAGCAAUAUUACGACAU the same measures were -2.026 ± 0.012 and -1.04 ± 0.032.
In the case of CACAAGCAAUAUUACGGCCC, the “self-splicing fitness (ln)” value is, setting by setting: (30 °C) -2.49 ± 0.22; (37 °C) -1.82 ± 0.31.
Taken in the same sequence, the figures for GAAAAGCAAUAUUACGGUAG were -3.24 ± 0.18 and -1.53 ± 0.13.

The values are drawn from the supplement of paper PMC7877785.
